US20250215072A1 (published 2025)
Values belong to the binder of their own block, whether it stands above or below them.

Key:
[1] = target: T1, human GARP-proTGFβ1 complex (human, UniProt P01137 30-390; Q14392 20-627); test: BLI (Octet)
T1 construct: also called hGARP-proTGFβ1; hGARP
Protocol: (§1) The affinity of anti-TGFβ1 antibodies was measured by Octet@ assay on human proTGFβ1 cells, while activity was measured by CAGA12 reporter cells testing human proTGFβ1 inhibition.

[2] = target: T2, human LRRC33-proTGFβ1 complex (human, UniProt P01137 30-390; Q86YC3 19-650); test: BLI (Octet)
T2 construct: also called hLRRC33-proTGFβ1; hLRRC33
T2 sequence (P01137 30-390 limits assumed, chain 1 of 2): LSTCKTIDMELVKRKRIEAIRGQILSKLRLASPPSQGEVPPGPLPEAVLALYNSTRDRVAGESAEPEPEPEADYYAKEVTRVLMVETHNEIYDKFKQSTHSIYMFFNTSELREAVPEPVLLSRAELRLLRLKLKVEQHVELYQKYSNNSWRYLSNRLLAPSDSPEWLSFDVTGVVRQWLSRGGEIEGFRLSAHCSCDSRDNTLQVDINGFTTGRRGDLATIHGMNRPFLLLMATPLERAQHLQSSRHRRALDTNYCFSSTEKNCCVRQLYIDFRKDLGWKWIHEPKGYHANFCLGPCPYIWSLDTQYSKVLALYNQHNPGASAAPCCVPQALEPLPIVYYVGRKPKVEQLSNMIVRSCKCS
T2 sequence (Q86YC3 other isoform, or with tags, fused parts or gaps limits assumed, chain 2 of 2): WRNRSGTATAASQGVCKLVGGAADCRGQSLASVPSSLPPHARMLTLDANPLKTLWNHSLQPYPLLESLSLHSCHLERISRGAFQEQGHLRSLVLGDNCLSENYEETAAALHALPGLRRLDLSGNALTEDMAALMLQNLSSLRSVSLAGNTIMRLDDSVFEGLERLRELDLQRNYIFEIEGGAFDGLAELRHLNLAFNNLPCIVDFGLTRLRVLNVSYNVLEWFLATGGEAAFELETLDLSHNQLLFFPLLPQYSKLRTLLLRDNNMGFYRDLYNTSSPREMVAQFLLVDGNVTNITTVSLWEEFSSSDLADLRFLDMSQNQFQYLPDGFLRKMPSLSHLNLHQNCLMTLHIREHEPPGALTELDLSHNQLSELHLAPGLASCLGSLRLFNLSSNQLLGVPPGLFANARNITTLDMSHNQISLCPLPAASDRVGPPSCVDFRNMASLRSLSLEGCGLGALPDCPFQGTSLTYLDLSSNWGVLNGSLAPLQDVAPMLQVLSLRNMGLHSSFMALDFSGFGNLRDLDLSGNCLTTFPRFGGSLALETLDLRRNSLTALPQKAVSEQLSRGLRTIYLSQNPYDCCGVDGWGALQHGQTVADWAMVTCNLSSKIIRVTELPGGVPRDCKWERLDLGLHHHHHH
Protocol: as §1

[3] = target: T1, human GARP-proTGFβ1 complex; test: MSD-SET, hIgG4
Protocol: (§2) MSD-SET assays were performed to measure affinities of the antibodies at equilibrium. Briefly, each test antibody was diluted 3-5 fold and samples were mixed with biotinylated antigen in a 48-well dish. The SET samples were equilibrated for 20-24 hours at room temperature. Meanwhile, a capture plate was coated with IgG (20 nM) and incubated overnight at 4° C. or 30 minutes at room temperature, followed by a blocking step with 5% BSA. After the capture plate was washed three times, SET samples were added and incubated for 150 seconds. The plate was washed once to remove unbound complexes. 250 ng/ml SA-Sulfotag was added then washed 3 times. 2× Read Buffer was added, and signals from the labeled bound complexes were read with the use of QuickPlex™ SQ 120 instrument.

[4] = target: T2, human LRRC33-proTGFβ1 complex; test: MSD-SET, hIgG4
Protocol: as §2

[5] = target: hLTBP1-proTGFβ1 as produced in the cell-based activation assay (human, UniProt P01137 30-390; Q14766 347-1721); test: cell-based or functional assay
hLTBP1-proTGFβ1 as produced in the cell-based activation assay, sequence (P01137 30-390 limits assumed, chain 1 of 2): as the sequence (P01137 30-390 limits assumed, chain 1 of 2) above
hLTBP1-proTGFβ1 as produced in the cell-based activation assay, sequence (Q14766 347-1721 limits assumed, chain 2 of 2): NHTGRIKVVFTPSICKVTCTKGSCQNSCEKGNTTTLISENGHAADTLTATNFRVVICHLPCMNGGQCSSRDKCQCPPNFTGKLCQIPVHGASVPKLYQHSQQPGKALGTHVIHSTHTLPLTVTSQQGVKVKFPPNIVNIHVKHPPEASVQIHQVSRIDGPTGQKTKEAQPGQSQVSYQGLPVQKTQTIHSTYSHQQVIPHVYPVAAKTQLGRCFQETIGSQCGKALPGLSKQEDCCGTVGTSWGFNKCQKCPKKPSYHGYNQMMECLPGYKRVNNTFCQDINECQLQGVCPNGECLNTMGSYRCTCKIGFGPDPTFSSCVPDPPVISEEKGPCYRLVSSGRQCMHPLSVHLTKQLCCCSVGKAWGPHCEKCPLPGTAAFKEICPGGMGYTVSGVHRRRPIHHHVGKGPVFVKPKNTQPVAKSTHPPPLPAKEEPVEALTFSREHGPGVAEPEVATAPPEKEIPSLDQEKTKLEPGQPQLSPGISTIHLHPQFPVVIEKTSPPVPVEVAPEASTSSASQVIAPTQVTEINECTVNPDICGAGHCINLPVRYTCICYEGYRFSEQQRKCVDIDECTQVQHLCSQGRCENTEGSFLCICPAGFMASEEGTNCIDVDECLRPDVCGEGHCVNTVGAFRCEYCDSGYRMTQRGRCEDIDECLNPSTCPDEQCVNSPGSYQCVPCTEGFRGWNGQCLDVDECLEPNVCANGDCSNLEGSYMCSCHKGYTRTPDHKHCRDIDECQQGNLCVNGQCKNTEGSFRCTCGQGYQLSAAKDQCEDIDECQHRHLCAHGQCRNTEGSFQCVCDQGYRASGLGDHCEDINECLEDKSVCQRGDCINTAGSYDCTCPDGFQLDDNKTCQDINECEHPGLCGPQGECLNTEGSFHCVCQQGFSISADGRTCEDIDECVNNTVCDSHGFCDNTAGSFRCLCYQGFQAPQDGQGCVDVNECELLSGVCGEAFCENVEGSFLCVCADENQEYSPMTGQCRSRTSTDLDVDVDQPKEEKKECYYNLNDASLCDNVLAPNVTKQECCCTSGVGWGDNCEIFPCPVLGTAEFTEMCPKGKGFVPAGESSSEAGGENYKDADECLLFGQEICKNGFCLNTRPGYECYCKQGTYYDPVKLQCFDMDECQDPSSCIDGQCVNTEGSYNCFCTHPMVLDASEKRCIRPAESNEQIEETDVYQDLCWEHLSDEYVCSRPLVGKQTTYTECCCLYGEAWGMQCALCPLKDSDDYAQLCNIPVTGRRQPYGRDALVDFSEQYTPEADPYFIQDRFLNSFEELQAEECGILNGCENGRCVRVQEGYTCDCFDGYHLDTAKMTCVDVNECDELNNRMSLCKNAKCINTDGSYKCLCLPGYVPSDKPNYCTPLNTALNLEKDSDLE

[6] = target: hLTBP3-proTGFβ1 as produced in the cell-based activation assay (human, UniProt P01137 30-390; Q9NS15 44-1303); test: cell-based or functional assay
[7] = target: hGARP-proTGFβ1 presented on cells (human, UniProt P01137 30-390; Q14392 20-662); test: cell-based or functional assay
hGARP-proTGFβ1 presented on cells, sequence (P01137 30-390 limits assumed, chain 1 of 2): as the sequence (P01137 30-390 limits assumed, chain 1 of 2) above
hGARP-proTGFβ1 presented on cells, sequence (Q14392 20-662 limits assumed, chain 2 of 2): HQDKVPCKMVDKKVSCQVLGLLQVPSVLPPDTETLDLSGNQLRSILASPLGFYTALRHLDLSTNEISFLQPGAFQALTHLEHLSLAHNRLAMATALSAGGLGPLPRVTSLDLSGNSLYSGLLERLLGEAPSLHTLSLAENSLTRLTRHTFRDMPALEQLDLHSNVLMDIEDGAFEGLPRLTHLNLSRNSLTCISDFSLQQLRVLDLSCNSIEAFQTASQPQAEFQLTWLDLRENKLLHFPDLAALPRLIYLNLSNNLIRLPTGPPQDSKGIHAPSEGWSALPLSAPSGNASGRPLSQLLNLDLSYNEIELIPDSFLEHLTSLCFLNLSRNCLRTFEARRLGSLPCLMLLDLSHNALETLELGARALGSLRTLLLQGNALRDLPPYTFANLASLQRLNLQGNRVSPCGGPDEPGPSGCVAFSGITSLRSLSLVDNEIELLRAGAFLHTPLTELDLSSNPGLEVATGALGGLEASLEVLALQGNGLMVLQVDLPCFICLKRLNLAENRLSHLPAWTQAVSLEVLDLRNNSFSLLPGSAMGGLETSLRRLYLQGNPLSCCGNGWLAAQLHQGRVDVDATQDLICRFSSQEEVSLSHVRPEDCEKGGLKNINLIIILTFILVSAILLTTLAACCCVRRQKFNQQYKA

[8] = target: hLRRC33-proTGFβ1 presented on cells (human, UniProt P01137 30-390; Q86YC3 19-692); test: cell-based or functional assay
hLRRC33-proTGFβ1 presented on cells, sequence (P01137 30-390 limits assumed, chain 1 of 2): as the sequence (P01137 30-390 limits assumed, chain 1 of 2) above
hLRRC33-proTGFβ1 presented on cells, sequence (Q86YC3 19-692 limits assumed, chain 2 of 2): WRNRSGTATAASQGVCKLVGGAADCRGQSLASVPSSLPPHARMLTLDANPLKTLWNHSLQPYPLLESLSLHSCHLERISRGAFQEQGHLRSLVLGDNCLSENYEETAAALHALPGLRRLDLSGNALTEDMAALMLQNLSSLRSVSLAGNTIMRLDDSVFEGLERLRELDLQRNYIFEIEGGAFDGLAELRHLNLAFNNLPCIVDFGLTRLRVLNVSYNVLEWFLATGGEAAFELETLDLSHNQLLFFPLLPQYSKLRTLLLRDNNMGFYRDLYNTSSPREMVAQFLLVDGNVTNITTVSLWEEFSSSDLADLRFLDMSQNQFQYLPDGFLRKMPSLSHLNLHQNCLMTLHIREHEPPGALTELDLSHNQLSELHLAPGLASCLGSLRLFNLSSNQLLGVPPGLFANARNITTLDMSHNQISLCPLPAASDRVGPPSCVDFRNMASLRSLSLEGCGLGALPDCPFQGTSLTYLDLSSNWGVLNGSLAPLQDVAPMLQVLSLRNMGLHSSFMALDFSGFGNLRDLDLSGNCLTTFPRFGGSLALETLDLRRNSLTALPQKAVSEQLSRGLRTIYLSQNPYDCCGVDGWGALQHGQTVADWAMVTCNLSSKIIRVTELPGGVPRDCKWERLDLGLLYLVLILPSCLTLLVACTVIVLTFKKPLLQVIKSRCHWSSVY

T1 sequence (P01137 30-390, chain 1 of 2): as the sequence (P01137 30-390 limits assumed, chain 1 of 2) above
T1 sequence (Q14392 20-627, chain 2 of 2): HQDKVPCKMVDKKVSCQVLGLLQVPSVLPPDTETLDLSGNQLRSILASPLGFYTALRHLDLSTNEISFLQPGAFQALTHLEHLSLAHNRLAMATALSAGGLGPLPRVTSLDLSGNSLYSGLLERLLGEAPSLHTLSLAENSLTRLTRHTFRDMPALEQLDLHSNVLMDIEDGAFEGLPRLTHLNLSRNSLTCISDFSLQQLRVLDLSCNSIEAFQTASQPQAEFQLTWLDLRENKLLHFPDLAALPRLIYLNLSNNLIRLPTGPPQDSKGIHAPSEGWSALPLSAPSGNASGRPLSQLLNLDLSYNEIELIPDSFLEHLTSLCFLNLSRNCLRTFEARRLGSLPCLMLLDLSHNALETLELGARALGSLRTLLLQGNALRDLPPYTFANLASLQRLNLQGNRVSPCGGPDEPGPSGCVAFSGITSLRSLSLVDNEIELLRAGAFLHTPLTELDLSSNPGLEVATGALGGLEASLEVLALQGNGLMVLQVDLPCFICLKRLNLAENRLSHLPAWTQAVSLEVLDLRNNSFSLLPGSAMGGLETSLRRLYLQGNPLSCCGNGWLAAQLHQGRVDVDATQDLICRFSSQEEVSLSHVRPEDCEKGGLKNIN

B1: Ab22 (antibody, IgG4, V domains shown)
VH: EVQLVESGGGLVQPGGSLRLSCAASGFTFGSFSMNWVRQAPGKGLEWVSYIHSDASTIYYADSVKGRFTISRDNAKNSLYLQMNSLRAEDTAVYYCARGVLDYGDMLDPWGQGTLVTVSS
VL: DIQMTQSPSSLSASVGDRVTITCQASQDITNYLNWYQQKPGKAPKLLIYDASNLETGVPSRFSGSGSGTDFTFTISSLQPEDIATYYCQQADNHPPWTFGGGTKVEIK
Kd [1]: 974 pM
Kd [2]: 415 pM
Kd [3]: 27 pM
Kd [4]: 200 pM

B5: Ab30 (antibody, IgG4, V domains shown)
VH: EVQLVESGGGLVQPGGSLRLSCAASGFTFSSFSMDWVRQAPGKGLEWVSYISPDASTIYYADSVKGRFTISRDNAKNSLYLQMNSLRAEDTAVYYCARGTLDYGDMLDPWGQGTLVTVSS
VL: DIQMTQSPSSLSASVGDRVTITCQASQDITNYLNWYQQKPGKAPKLLIYDASNLETGVPSRFSGSGSGTDFTFTISSLQPEDIATYYCQQADNHPPWTFGGGTKVEIK
Kd [1]: 833 pM
Kd [2]: 535 pM
Kd [3]: 22 pM
Kd [4]: 140 pM

B9: Ab11 (antibody, IgG4, V domains shown)
VH: EVQLLESGGGLVQPGGSLRLSCAASGFTFRNYAMSWVRQAPGKGLEWVSSISGSGGATYYADSVKGRFTISRDNSKNTLYLQMNSLRAEDTAVYYCARVSSGHWDFDYWGQGTLVTVSS
VL: DIQLTQSPSSLSASVGDRVTITCRASQSISSYLNWYQQKPGKAPKLLIYAASNLQSGVPSRFSGSGSGTDFTLTISSLQPEDFATYYCQQTYTVPLTFGGGTKVEIK
Kd [1]: 842 pM
Kd [2]: 555 pM
Kd [3]: 3000 pM
Kd [4]: 6300 pM
IC50, reporter cell assay [5]: 2950 pM
IC50, reporter cell assay [6]: 1560 pM
IC50, reporter cell assay [7]: 790 pM
IC50, reporter cell assay [8]: 1270 pM

B10: Ab12 (antibody, IgG4, V domains shown)
VH: QVQLVESGGGVVQPGRSLRLSCAASGFTFSDYAMVWVRQAPGKGLEWVSAISGSGFTTYYADSVKGRFTISRDNSKNTLYLQMNSLRAEDTAVYYCARVSSGHWDFDYWGQGTLVTVSS
VL: DIQLTQSPSSLSASVGDRVTITCRASQSISSYLNWYQQKPGKAPKLLIYAASNLQSGVPSRFSGSGSGTDFTLTISSLQPEDFATYYCQQTYTVPLTFGGGTKVEIK
Kd [1]: 7010 pM
Kd [2]: 775 pM
Kd [3]: 1700 pM
Kd [4]: 3200 pM
IC50, reporter cell assay [5]: 3790 pM
IC50, reporter cell assay [6]: 1560 pM
IC50, reporter cell assay [7]: 1080 pM
IC50, reporter cell assay [8]: 2430 pM

B11: Ab19 (antibody, IgG4, V domains shown)
VH: QVQLVESGGGVVQPGRSLRLSCAASGFTFSSFAMTWVRQAPGKGLEWVSAISGSGAATYFADSVKGRFTISRDNSKNTLYLQMNSLRAEDTAVYYCARVSSGHWDFDEWGQGTLVTVSS
VL: DIQLTQSPSSLSASVGDRVTITCRASQSISSYLNWYQQKPGKAPKLLIYAASNLQSGVPSRFSGSGSGTDFTLTISSLQPEDFATYYCQQTYTVPLTFGGGTKVEIK
Kd [1]: 11200 pM
Kd [2]: 692 pM
Kd [3]: 3800 pM
Kd [4]: 5700 pM
IC50, reporter cell assay [5]: 1660 pM
IC50, reporter cell assay [6]: 1600 pM
IC50, reporter cell assay [7]: 1340 pM
IC50, reporter cell assay [8]: 401 pM

B12: Ab20 (antibody, IgG4, V domains shown)
VH: EVQLLESGGGLVQPGGSLRLSCAASGFTFSAYAMTWVRQAPGKGLEWVSAISGSGGVTYYADSVKGRFTISRDNSKNTLYLQMNSLRAEDTAVYYCARVSSGHWDYDYWGQGTLVTVSS
VL: DIQLTQSPSSLSASVGDRVTITCRASQSISSYLNWYQQKPGKAPKLLIYAASNLQSGVPSRFSGSGSGTDFTLTISSLQPEDFATYYCQQTYTVPLTFGGGTKVEIK
Kd [1]: 884 pM
Kd [2]: 545 pM
Kd [3]: 1100 pM
Kd [4]: 1600 pM
IC50, reporter cell assay [5]: 1850 pM
IC50, reporter cell assay [6]: 1180 pM
IC50, reporter cell assay [7]: 387 pM
IC50, reporter cell assay [8]: 1350 pM

B13: Ab2 (antibody, V domains shown)
VH: EVQLLESGGGLVQPGGSLRLSCAASGFTFADYAMTWVRQAPGKGLEWVSAISGSGAATYFADSVKGRFTISRDNSKNTLYLQMNSLRAEDTAVYYCARVSSGHWDFDYWGQGTLVTVSS
VL: DIQLTQSPSSLSASVGDRVTITCRASQSISSYLNWYQQKPGKAPKLLIYAASNLQSGVPSRFSGSGSGTDFTLTISSLQPEDFATYYCQQTYTVPLTFGGGTKVEIKR
Kd [1]: 778 pM
Kd [2]: 508 pM
Kd [3]: 1400 pM
Kd [4]: 3200 pM
IC50, reporter cell assay [5]: 3390 pM
IC50, reporter cell assay [6]: 867 pM
IC50, reporter cell assay [7]: 776 pM
IC50, reporter cell assay [8]: 1380 pM

B14: Ab35 (antibody, IgG4, V domains shown)
VH: EVQLLESGGGLVQPGGSLRLSCAASGFTFRNYAMSWVRQAPGKGLEWVSSISGSGGATYYADSVKGRFTISRDNSKNTLYLQMNSLRAEDTAVYYCARVSSYLWDFDYWGQGTLVTVSS
VL: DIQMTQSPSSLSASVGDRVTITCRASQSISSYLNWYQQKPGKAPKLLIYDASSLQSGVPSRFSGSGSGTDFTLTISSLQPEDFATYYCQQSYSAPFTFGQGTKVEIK
Kd [1]: 7370 pM
Kd [2]: 545 pM
Kd [3]: 1100 pM
Kd [4]: 1100 pM
IC50, reporter cell assay [5]: 6250 pM
IC50, reporter cell assay [6]: 2710 pM
IC50, reporter cell assay [7]: 3720 pM
IC50, reporter cell assay [8]: 5370 pM

The next binders have a lower Kd [1] than those just listed; values first:

Kd [1]: 665 pM
Kd [2]: 410 pM
Kd [3]: 19 pM
Kd [4]: 180 pM
B2: Ab24 (antibody, IgG4, V domains shown)
VH: EVQLVESGGGLVQPGRSLRLSCAASGFTFSSFAMYWVRQAPGKGLEWVSYISPDASTIYYADSVKGRFTISRDNAKNSLYLQMNSLRAEDTAVYYCARGVLDYGDMLDPWGQGTLVTVSS
VL: DIQMTQSPSSLSASVGDRVTITCQASQDITNYLNWYQQKPGKAPKLLIYDASNLETGVPSRFSGSGSGTDFTFTISSLQPEDIATYYCQQADNHPPWTFGGGTKVEIK

Kd [1]: 625 pM
Kd [2]: 360 pM
Kd [3]: 14 pM
Kd [4]: 130 pM
IC50, reporter cell assay [5]: 713 pM
IC50, reporter cell assay [6]: 716 pM
IC50, reporter cell assay [7]: 262 pM
IC50, reporter cell assay [8]: 341 pM
B3: Ab26 (antibody, IgG4, V domains shown)
VH: EVQLVESGGGLVQPGGSLRLSCAASGFTFSSFSMDWVRQAPGKGLEWVSYISPDASTIYYADSVKGRFTISRDNAKNTLYLQMNSLRAEDTAVYYCARGVLDYGDMLDPWGQGTLVTVSS
VL: DIQMTQSPSSLSASVGDRVTITCQASQDITNYLNWYQQKPGKAPKLLIYDASNLETGVPSRFSGSGSGTDFTFTISSLQPEDIATYYCQQADNHPPWTFGGGTKVEIK

Kd [1]: 307 pM
Kd [2]: 302 pM
Kd [3]: 5.5 pM
Kd [4]: 43 pM
IC50, reporter cell assay [5]: 471 pM
IC50, reporter cell assay [6]: 803 pM
IC50, reporter cell assay [7]: 264 pM
IC50, reporter cell assay [8]: 458 pM
B4: Ab29 (antibody, IgG4, V domains shown)
VH: EVQLVESGGGLVQPGRSLRLSCAASGFTFSSFAMNWVRQAPGKGLEWVSYISPDASTIYYAGSVKGRFTISRDNAKNSLYLQMNSLRAEDTAVYYCVRAVLDYGDMLDPWGQGTLVTVSS
VL: DIQMTQSPSSLSASVGDRVTITCQASQDITNYLNWYQQKPGKAPKLLIYDASNLETGVPSRFSGSGSGTDFTFTISSLQPEDIATYYCQQADNHPPWTFGGGTKVEIK

Kd [1]: 581 pM
Kd [2]: 410 pM
Kd [3]: 19 pM
Kd [4]: 96 pM
B6: Ab31 (antibody, IgG4, V domains shown)
VH: EVQLVESGGGLVQPGGSLRLSCAASGFTFSSFSMDWVRQAPGKGLEWVSYISPDASTIYYADSVKGRFTISRDNAKNTLYLQMNSLRAEDTAVYYCARAVLDYGDMLDPWGQGTLVTVSS
VL: DIQMTQSPSSLSASVGDRVTITCQASQDITNYLNWYQQKPGKAPKLLIYDASNLETGVPSRFSGSGSGTDFTFTISSLQPEDIATYYCQQADNHPPWTFGGGTKVEIK

Kd [1]: 496 pM
Kd [2]: 698 pM
Kd [3]: 15 pM
Kd [4]: 87 pM
B7: Ab32 (antibody, IgG4, V domains shown)
VH: EVQLVESGGGLVQPGGSLRLSCAASGFTFSSFSMNWVRQAPGKGLEWVSYISPSADTIYYADSVKGRFTISRDNAKNTLYLQMNSLRAEDTAVYYCARGVWDMGDMLDPWGQGTLVTVSS
VL: DIQMTQSPSSLSASVGDRVTITCQASQDITNYLNWYQQKPGKAPKLLIYDASNLETGVPSRFSGSGSGTDFTFTISSLQPEDIATYYCQQADNHPPWTFGGGTKVEIK

Kd [1]: 265 pM
Kd [2]: 339 pM
Kd [3]: 7.8 pM
Kd [4]: 46 pM
IC50, reporter cell assay [5]: 1560 pM
IC50, reporter cell assay [6]: 1110 pM
IC50, reporter cell assay [7]: 198 pM
IC50, reporter cell assay [8]: 738 pM
B8: Ab33 (antibody, IgG4, V domains shown)
VH: EVQLVESGGGLVQPGGSLRLSCAASGFTFSSFSMNWVRQAPGKGLEWVSYISPSADTIYYADSVKGRFTISRDNAKNTLYLQMNSLRAEDTAVYYCAHGVLDYGDMLDPWGQGTLVTVSS
VL: DIQMTQSPSSLSASVGDRVTITCQASQDITNYLNWYQQKPGKAPKLLIYDASNLETGVPSRFSGSGSGTDFTFTISSLQPEDIATYYCQQADNHPPWTFGGGTKVEIK
